{"source": "patent US20240002818", "tested_on": "T1, Myotis lucifugus helper (Myotis lucifugus)", "T1 sequence": "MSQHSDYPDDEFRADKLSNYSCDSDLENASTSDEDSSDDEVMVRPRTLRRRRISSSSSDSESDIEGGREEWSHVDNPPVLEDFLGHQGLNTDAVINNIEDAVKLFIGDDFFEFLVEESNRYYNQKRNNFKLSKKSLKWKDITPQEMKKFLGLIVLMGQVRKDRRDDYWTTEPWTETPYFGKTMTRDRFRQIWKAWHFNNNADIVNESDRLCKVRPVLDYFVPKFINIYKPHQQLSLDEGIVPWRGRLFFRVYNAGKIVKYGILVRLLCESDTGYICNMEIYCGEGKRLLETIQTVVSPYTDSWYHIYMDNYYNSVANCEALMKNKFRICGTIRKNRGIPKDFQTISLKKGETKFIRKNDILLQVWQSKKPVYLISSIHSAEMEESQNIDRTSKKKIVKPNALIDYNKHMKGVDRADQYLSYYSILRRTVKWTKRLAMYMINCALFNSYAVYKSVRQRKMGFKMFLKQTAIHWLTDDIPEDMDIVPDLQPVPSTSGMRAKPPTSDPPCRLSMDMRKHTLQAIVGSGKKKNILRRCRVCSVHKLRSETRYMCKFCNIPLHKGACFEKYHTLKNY", "test": "cell_activity", "conditions": "HEK293, GFP+ cells day 21 relative to day 2; indirect evidence of end recognition"}
{"substance": "Myotis lucifugus donor ends (left/right)", "values": [{"measurement": "activity (% integration efficiency)", "result": 3.5}]}
